Test results: US5763571A, “Inhibiting protein interactions” (The General Hospital Corporation, priority 1995, dated 1998)

B1: V12Grap-1b: Rap 1b low molecular weight GTP binding protein variant, GAL4 fusion (protein)
chain: ANFNQSGNIADSSLSFTFTNSSNGPNLITTQTNSQALSQPIASSNVHDNFMNNEITASKIDDGNNSKPLSPGWTDQTAYNAFGITTGMFNTTTMDDVYNYLFDDEDTPPNPKKEMREYKLVVLGSVGVGKSALTVQFVQGIFVEKYDPTIEDSYRKQVEVDAQQCMLEILDTAGTEQFTAMRDLYMKNGQGFALVYSITAQSTFNDLQDLREQILRVKDTDDVPMILVGNKCDLEDERVVGKEQGQNLARQWNNCAFLESSAKSKINVNEIFYDLVRQINRKTPVPGKARKKSSCQLL
B2: V12Grap-1bΔCT: V12Grap-1b lacking the carboxyterminal 4 amino acids (protein)
chain: ANFNQSGNIADSSLSFTFTNSSNGPNLITTQTNSQALSQPIASSNVHDNFMNNEITASKIDDGNNSKPLSPGWTDQTAYNAFGITTGMFNTTTMDDVYNYLFDDEDTPPNPKKEMREYKLVVLGSVGVGKSALTVQFVQGIFVEKYDPTIEDSYRKQVEVDAQQCMLEILDTAGTEQFTAMRDLYMKNGQGFALVYSITAQSTFNDLQDLREQILRVKDTDDVPMILVGNKCDLEDERVVGKEQGQNLARQWNNCAFLESSAKSKINVNEIFYDLVRQINRKTPVPGKARKKSS

Molecular target: T1, Raf(1-257) (Homo sapiens, UniProt P04049)
T1 construct: expressed in transfected cells; host or cells: yeast strain GGY1::171, plasmid pMA424
Experiment: Yeast two-hybrid GAL4/lacZ interaction with Raf(1-257)
Type: cell-based
Settings: X-gal plates
Protocol: Detection of protein-protein interactions using the two-hybrid system in yeast was carried out as follows. The vector pMA424 (Chien C. T., Bartel P. L., Sternglanz, R., Fields, S., Proc. Natl. Acad. Sci. U.S.A. 88, 9578-9582 (1991)) containing either Raf(1-257) or Raf(1-257, C168 →S) DNA sequences fused in frame with the sequences encoding GAL4 (1-147), was cotransformed into yeast together with the pACTII vector containing no insert as a control, or DNA sequences encoding V12GrasH, V12GrasHΔCT, murine rap1b, or rap1bΔCT fused in frame with the GAL4 transactivation domain II. […]
The DNA sequences encoding Raf(1-257) and Raf(1-257, C168 →S) were prepared by the PCR using the plasmids RSV-C4 and RSV-PM17 (Bruder, J. T., Heidecker, G. & Rapp, U.R. Genes Dev. 6, 545-556 (1992)) respectively as templates. […] The reading frame and the C168 →S mutation were verified by DNA sequencing. […] Transformants were grown on SDHis-Leu-plates as in (Durfee, T. et al. Genes Develop. 7, 555-569 (1993); Chien C. T., Bartel P. L., Sternglanz, R., Fields, S., Proc. Natl. Acad. Sci. U.S.A. 88, 9578-9582 (1991)) for 3 days before replica plating to X-gal containing plates, which in turn were scored for blue colonies 72 hours later.
Ras effector domain mutants which impair the interaction between V12GrasHΔCT and Raf(1-257) were analyzed as follows. […]

Molecule | lacZ expression on coexpression with wild-type Raf(1-257) (in words)
B1 | interact strongly
B2 | interact strongly
